For 1 substance, stoichiometry N results are on record in article PMC4838861.

Test [1] addresses yeast V-ATPase c subunit ring (c8c’c”) (S. cerevisiae) (UniProt P25515). In words: SEC + other: negative-stain EM; purified c-ring (1 mg) on Superdex 200 in buffer with 0.1% DDM (also in UnDM or DM); peak fractions 48 and 58 viewed by negative-stain EM.
The target is the same in test [2]. As to the kind of experiment: negative-stain EM with single-particle class averaging; c-ring (1.5 mg/ml) mixed with DOPC, detergent removed with BioBeads for 7 days (incomplete); 4337 images of dumbbell-shaped particles outside the bilayers sorted into 16 classes (EMAN1.9).

Regarding “yeast V-ATPase c subunit ring (c8c’c”) (from UniProt P25515 1-160; P32842 1-164; P23968 1-213) (complex)”, the stoichiometry N in test [1] and in test [2] was 2 throughout.
